# In article PMC4456660:
# pKd: −log10 of the molar value.
# Key:
# [1] = molecular target: UbcH10~Ub conjugate (UbcH10(C114K)-Avi conjugated with His6-tagged ubiquitin), biotinylated (human) (UniProt O00762); assay: SPR
# [2] = molecular target: Ube2S, biotinylated on an N-terminal Avi tag (human) (UniProt Q16763); assay: SPR
# Sequence of Ube2S, biotinylated on an N-terminal Avi tag (human) (Q16763 whole entry): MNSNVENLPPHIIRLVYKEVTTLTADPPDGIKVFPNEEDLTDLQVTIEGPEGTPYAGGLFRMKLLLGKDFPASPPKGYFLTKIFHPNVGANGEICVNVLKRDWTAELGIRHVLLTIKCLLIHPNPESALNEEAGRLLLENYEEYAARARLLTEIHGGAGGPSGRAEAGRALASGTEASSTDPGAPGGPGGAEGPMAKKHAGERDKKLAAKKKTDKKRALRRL
# Sequence of UbcH10~Ub conjugate (UbcH10(C114K)-Avi conjugated with His6-tagged ubiquitin), biotinylated (human) (O00762 whole entry C114K): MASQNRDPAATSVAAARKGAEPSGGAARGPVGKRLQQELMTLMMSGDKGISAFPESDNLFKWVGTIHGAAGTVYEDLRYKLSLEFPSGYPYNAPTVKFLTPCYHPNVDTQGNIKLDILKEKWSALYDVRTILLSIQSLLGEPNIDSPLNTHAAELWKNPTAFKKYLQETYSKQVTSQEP
Substance,fold higher affinity than apo APC/C [1] [fold],pKd [2]
APC/C^Cdh1.Hsl1 ternary complex (from UniProt Q9H1A4;Q9UJX6;P30260;Q9UJX5;Q9UJX4;Q13042;Q9UJX3;Q9UJX2;Q9UM13;Q9NYG5;Q8NHZ8;Q9BS18;P60006;Q96DE5;Q9UM11;P34244),7,6.70
apo APC/C (from UniProt Q9H1A4;Q9UJX6;P30260;Q9UJX5;Q9UJX4;Q13042;Q9UJX3;Q9UJX2;Q9UM13;Q9NYG5;Q8NHZ8;Q9BS18;P60006;Q96DE5) (complex),,6.52
